Positions count from the first letter of the chain named. Names and notes keep the numbering of the source.
T1: EsCas13d, nuclease-dead (Eubacterium siraeum, UniProt B0MS50, R295A;H300A;R849A;H854A)
T1 sequence: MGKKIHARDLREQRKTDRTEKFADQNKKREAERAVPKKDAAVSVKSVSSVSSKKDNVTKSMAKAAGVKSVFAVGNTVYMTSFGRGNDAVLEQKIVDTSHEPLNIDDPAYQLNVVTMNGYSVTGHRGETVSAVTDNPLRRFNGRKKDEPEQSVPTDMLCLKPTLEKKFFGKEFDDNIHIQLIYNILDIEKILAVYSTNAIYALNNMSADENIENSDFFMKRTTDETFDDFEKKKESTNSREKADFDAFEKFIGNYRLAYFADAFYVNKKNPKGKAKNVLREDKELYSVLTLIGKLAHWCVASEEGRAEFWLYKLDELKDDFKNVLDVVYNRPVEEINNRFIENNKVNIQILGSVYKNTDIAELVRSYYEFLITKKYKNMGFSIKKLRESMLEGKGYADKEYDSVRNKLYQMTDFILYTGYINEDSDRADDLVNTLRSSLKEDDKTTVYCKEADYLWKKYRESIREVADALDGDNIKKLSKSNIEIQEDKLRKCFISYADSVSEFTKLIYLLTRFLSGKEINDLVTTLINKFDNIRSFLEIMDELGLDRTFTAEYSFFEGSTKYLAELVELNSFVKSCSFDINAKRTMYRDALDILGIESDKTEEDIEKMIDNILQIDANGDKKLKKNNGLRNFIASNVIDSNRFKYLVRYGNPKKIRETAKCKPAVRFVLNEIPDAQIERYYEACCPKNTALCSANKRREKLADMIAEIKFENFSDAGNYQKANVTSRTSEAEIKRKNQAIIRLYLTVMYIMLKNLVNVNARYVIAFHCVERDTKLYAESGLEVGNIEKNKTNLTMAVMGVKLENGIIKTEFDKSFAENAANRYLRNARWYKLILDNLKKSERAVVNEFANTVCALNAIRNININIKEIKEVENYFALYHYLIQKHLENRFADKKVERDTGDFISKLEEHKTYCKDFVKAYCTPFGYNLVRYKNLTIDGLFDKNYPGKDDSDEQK

B1: target 1 MT 5'PFS CGC 3'PFS UCG (mixed)
RNA 1: CACCCGUGCAAAAAUGCAGGGGUCUAAAACUGAGCGGAUAACCUCUCUAUGG
RNA 2: GGGAAUGGAUCCACAUCUACGAAUUCCGCCCAUAGAGAGGUUAUCCGCUCAUCGAGAUCGGAAGAGCACACGU
B2: target 1 MT 5'PFS GCU 3'PFS CUG (mixed)
RNA 1: B1 RNA 1
RNA 2: B1 RNA 2 with C27G, G28C, C29U, U52C, C53U
B3: target 1 MT 5'PFS UGG 3'PFS ACU (mixed)
RNA 1: B1 RNA 1
RNA 2: B1 RNA 2 with C27U, C29G, U52A, G54U
B4: target 1 MT 5'PFS CCG 3'PFS ACU (mixed)
RNA 1: B1 RNA 1
RNA 2: B1 RNA 2 with G28C, C29G, U52A, G54U
B5: target 1 MT 5'PFS GUG 3'PFS ACC (mixed)
RNA 1: B1 RNA 1
RNA 2: B1 RNA 2 with C27G, G28U, C29G, U52A, G54C
B6: target 1 MT 5'PFS CAA 3'PFS UAG (mixed)
RNA 1: B1 RNA 1
RNA 2: B1 RNA 2 with G28A, C29A, C53A
B7: target 1 MT 5'PFS UGG 3'PFS ACG (mixed)
RNA 1: B1 RNA 1
RNA 2: B1 RNA 2 with C27U, C29G, U52A
B8: target 1 MT 5'PFS GCU 3'PFS CUU (mixed)
RNA 1: B1 RNA 1
RNA 2: B1 RNA 2 with C27G, G28C, C29U, U52C, C53U, G54U
B9: target 1 MT 5'PFS GUA 3'PFS GAA (mixed)
RNA 1: B1 RNA 1
RNA 2: B1 RNA 2 with C27G, G28U, C29A, U52G, C53A, G54A
B10: target 1 MT 5'PFS CAA 3'PFS UAA (mixed)
RNA 1: B1 RNA 1
RNA 2: B1 RNA 2 with G28A, C29A, C53A, G54A
B11: target 1 MT 5'PFS CAG 3'PFS AAG (mixed)
RNA 1: B1 RNA 1
RNA 2: B1 RNA 2 with G28A, C29G, U52A, C53A
B12: target 1 MT 5'PFS GCU 3'PFS CUC (mixed)
RNA 1: B1 RNA 1
RNA 2: B1 RNA 2 with C27G, G28C, C29U, U52C, C53U, G54C
B13: target 1 MT 5'PFS GCA 3'PFS ACU (mixed)
RNA 1: B1 RNA 1
RNA 2: B1 RNA 2 with C27G, G28C, C29A, U52A, G54U
B14: target 1 MT 5'PFS GUG 3'PFS ACU (mixed)
RNA 1: B1 RNA 1
RNA 2: B1 RNA 2 with C27G, G28U, C29G, U52A, G54U
B15: target 1 MT 5'PFS GGG 3'PFS UGU (mixed)
RNA 1: B1 RNA 1
RNA 2: B1 RNA 2 with C27G, C29G, C53G, G54U
B16: target 1 MT 5'PFS GUG 3'PFS ACG (mixed)
RNA 1: B1 RNA 1
RNA 2: B1 RNA 2 with C27G, G28U, C29G, U52A
B17: target 1 MT 5'PFS GCA 3'PFS ACG (mixed)
RNA 1: B1 RNA 1
RNA 2: B1 RNA 2 with C27G, G28C, C29A, U52A
B18: target 1 MT 5'PFS UUU 3'PFS CGU (mixed)
RNA 1: B1 RNA 1
RNA 2: B1 RNA 2 with C27U, G28U, C29U, U52C, C53G, G54U
B19: target 1 insC 3' of 11,insG 3' of 9 (mixed)
RNA 1: B1 RNA 1
RNA 2: GGGAAUGGAUCCACAUCUACGAAUUCGUACCAUAGAGAGGUCUAGUCCGCUCACCGAGAUCGGAAGAGCACACGU
B20: target 1 MT 5'PFS GGU 3'PFS UUC (mixed)
RNA 1: B1 RNA 1
RNA 2: B1 RNA 2 with C27G, C29U, C53U, G54C
B21: target 1 MT 5'PFS GCA 3'PFS CCG (mixed)
RNA 1: B1 RNA 1
RNA 2: B1 RNA 2 with C27G, G28C, C29A, U52C
B22: target 1 MT 5'PFS GGG 3'PFS UGA (mixed)
RNA 1: B1 RNA 1
RNA 2: B1 RNA 2 with C27G, C29G, C53G, G54A
B23: target 1 MT 5'PFS GGC 3'PFS CGA (mixed)
RNA 1: B1 RNA 1
RNA 2: B1 RNA 2 with C27G, U52C, C53G, G54A
B24: target 1 MT 5'PFS GUG 3'PFS ACA (mixed)
RNA 1: B1 RNA 1
RNA 2: B1 RNA 2 with C27G, G28U, C29G, U52A, G54A
B25: target 1 MT 5'PFS CAA 3'PFS UAU (mixed)
RNA 1: B1 RNA 1
RNA 2: B1 RNA 2 with G28A, C29A, C53A, G54U
B26: target 1 insC 3' of 20,insC 3' of 20 (mixed)
RNA 1: B1 RNA 1
RNA 2: B19 RNA 2 with U33C, A34C, G35U, G40A, U41G, C42G, A44U, G45A
B27: target 1 MT 5'PFS GGG 3'PFS UGC (mixed)
RNA 1: B1 RNA 1
RNA 2: B1 RNA 2 with C27G, C29G, C53G, G54C
B28: target 1 MT 5'PFS GUA 3'PFS GAU (mixed)
RNA 1: B1 RNA 1
RNA 2: B1 RNA 2 with C27G, G28U, C29A, U52G, C53A, G54U
B29: target 1 MT 5'PFS UAG 3'PFS AUG (mixed)
RNA 1: B1 RNA 1
RNA 2: B1 RNA 2 with C27U, G28A, C29G, U52A, C53U
B30: target 1 MT 5'PFS AGC 3'PFS AUA (mixed)
RNA 1: B1 RNA 1
RNA 2: B1 RNA 2 with C27A, U52A, C53U, G54A
B31: target 1 MT 5'PFS CAA 3'PFS UAC (mixed)
RNA 1: B1 RNA 1
RNA 2: B1 RNA 2 with G28A, C29A, C53A, G54C
B32: target 1 MT 5'PFS UAG 3'PFS AUU (mixed)
RNA 1: B1 RNA 1
RNA 2: B1 RNA 2 with C27U, G28A, C29G, U52A, C53U, G54U
B33: target 1 MT 5'PFS GGC 3'PFS AGA (mixed)
RNA 1: B1 RNA 1
RNA 2: B1 RNA 2 with C27G, U52A, C53G, G54A
B34: target 1 MT 5'PFS AGU 3'PFS CCG (mixed)
RNA 1: B1 RNA 1
RNA 2: B1 RNA 2 with C27A, C29U, U52C
B35: target 1 MT 5'PFS GCU 3'PFS CUA (mixed)
RNA 1: B1 RNA 1
RNA 2: B1 RNA 2 with C27G, G28C, C29U, U52C, C53U, G54A
B36: target 1 U10G,A16U (mixed)
RNA 1: B1 RNA 1
RNA 2: B1 RNA 2 with C27G, G28U, C29A, A36U, U42G, U52C
B37: target 1 MT 5'PFS GAA 3'PFS CGA (mixed)
RNA 1: B1 RNA 1
RNA 2: B1 RNA 2 with C27G, G28A, C29A, U52C, C53G, G54A
B38: target 1 MT 5'PFS GUA 3'PFS GAC (mixed)
RNA 1: B1 RNA 1
RNA 2: B1 RNA 2 with C27G, G28U, C29A, U52G, C53A, G54C
B39: target 1 MT 5'PFS GUA 3'PFS GAG (mixed)
RNA 1: B1 RNA 1
RNA 2: B1 RNA 2 with C27G, G28U, C29A, U52G, C53A
B40: target 1 MT 5'PFS GGC 3'PFS CGC (mixed)
RNA 1: B1 RNA 1
RNA 2: B1 RNA 2 with C27G, U52C, C53G, G54C

Each binder was assayed against T1, EsCas13d, nuclease-dead (assay: crRNA (strand 1, pre-loaded); Mg2+; 40 mM Tris-HCl pH 7.5, 150 mM NaCl, 6 mM MgCl2, 1 mM DTT, 0.1% Tween-20, 0.2 mg/ml BSA; 25 C; 10 min per concentration, then washed). Conditions: tags: His6-TwinStrep-SUMO cleaved; N-terminal SNAP kept (SNAP-Surface 488); label: 3' end held by stalled T7 RNA polymerase.

Row | Binder | Kd
1 | B1 | ~76 nM
2 | B2 | 92 ± 34 nM
3 | B3 | ~120 nM
4 | B4 | ~4.9 nM
5 | B5 | 12.4 ± 1.1 nM
6 | B6 | 17 ± 6.5 nM
7 | B7 | 54 ± 17.5 nM
8 | B8 | 26 ± 8 nM
9 | B9 | 11.8 ± 1.3 nM
10 | B10 | 18 ± 9 nM
11 | B11 | 28.5 ± 8 nM
12 | B12 | 44 ± 14 nM
13 | B13 | 18.5 ± 4.5 nM
14 | B14 | 11.5 ± 0.75 nM
15 | B15 | 43 ± 7.5 nM
16 | B16 | 15.4 ± 1 nM
17 | B17 | 19 ± 5.5 nM
18 | B18 | ~65 nM
19 | B19 | 31.8 ± 2 nM
20 | B20 | 36 ± 6 nM

Row | Binder | Kd
21 | B21 | 18.5 ± 8 nM
22 | B22 | 24.5 ± 4 nM
23 | B23 | 22 ± 7 nM
24 | B24 | 24.1 ± 2.35 nM
25 | B25 | 34.5 ± 15 nM
26 | B26 | 44.7 ± 3.1 nM
27 | B27 | 12.8 ± 1.3 nM
28 | B28 | 12.5 ± 1.35 nM
29 | B29 | 46.5 ± 9 nM
30 | B30 | 56.5 ± 18.5 nM
31 | B31 | 7.65 ± 2.65 nM
32 | B32 | 31.6 ± 4.7 nM
33 | B33 | 22.5 ± 5 nM
34 | B34 | 24.6 ± 7.6 nM
35 | B35 | 53 ± 22 nM
36 | B36 | 58 ± 10 nM
37 | B37 | ~85 nM
38 | B38 | 14.3 ± 3.05 nM
39 | B39 | 16.1 ± 2.3 nM
40 | B40 | 15.5 ± 4 nM
